Source: US20240182536A1 (MURAL ONCOLOGY, published 2024)

Legend:
[1] = target: T1, human IL-18 receptor alpha (IL-18Rα) (human, UniProt Q13478 19-329, limits assumed); assay: Octet BLI
T1 construct: also called hu IL-18Ra; IL-18R alpha
T1 sequence (looked up): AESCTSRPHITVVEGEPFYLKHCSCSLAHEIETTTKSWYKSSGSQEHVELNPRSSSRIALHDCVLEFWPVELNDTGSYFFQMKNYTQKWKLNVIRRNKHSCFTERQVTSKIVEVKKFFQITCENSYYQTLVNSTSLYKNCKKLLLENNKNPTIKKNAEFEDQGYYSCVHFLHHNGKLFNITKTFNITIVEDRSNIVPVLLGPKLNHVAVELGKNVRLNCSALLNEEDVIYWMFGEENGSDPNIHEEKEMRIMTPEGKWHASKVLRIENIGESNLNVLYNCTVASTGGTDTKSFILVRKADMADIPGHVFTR
Procedure: (§1) Octet 96red instrument was used to determine affinities of IL18 proteins to BP or receptors. 5-10 ug/ml analyte proteins were used for loading on Sartorius tips (AHC or SA). […] 120-180 s loading, 200 s association and 800 s dissociation were used for kinetics. 3-7 data points were used to calculate affinities.

[2] = target: T2, human IL-18R alpha/beta pair (IL-18Rab) (human, UniProt Q13478 19-329; O95256 20-356); assay: Octet BLI
T2 construct: also called hu IL-18Rab
T2 sequence (looked up) 1: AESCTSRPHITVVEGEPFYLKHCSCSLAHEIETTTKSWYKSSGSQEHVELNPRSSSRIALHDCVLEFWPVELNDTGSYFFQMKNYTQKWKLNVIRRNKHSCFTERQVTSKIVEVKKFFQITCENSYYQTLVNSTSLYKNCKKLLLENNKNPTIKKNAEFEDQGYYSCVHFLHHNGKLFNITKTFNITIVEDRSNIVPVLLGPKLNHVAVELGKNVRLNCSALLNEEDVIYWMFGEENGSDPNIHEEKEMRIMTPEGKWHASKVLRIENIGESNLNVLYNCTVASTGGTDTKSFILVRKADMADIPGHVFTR
T2 sequence (looked up) 2: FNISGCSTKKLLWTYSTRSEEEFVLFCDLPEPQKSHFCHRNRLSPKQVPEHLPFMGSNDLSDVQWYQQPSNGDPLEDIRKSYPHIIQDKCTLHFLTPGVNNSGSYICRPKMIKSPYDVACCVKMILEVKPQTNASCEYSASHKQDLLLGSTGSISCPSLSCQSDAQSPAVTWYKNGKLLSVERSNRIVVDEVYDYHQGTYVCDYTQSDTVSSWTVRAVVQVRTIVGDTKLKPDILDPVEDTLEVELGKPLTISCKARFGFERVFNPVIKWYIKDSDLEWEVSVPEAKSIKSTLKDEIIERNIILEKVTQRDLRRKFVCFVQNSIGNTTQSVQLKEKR
Procedure: as §1

[3] = target: T3, human IL-18 binding protein (IL-18BP) (human, UniProt O95998 31-194); assay: Octet BLI
T3 construct: also called hu IL-18BP; hIL18BP
T3 sequence (looked up): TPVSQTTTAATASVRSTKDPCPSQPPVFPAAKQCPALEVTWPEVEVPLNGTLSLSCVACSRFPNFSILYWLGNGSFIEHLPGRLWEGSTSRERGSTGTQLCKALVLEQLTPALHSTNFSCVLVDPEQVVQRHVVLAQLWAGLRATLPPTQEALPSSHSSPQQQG
Procedure: as §1

[4] = target: T3, human IL-18 binding protein (IL-18BP); assay: cell-based or functional assay
[5] = target: T4, IL-18 receptors on HEK-Blue IL-18 reporter cells (InvivoGen) (UniProt Q13478 19-541; O95256 20-599); assay: cell-based or functional assay
T4 sequence (looked up) 1: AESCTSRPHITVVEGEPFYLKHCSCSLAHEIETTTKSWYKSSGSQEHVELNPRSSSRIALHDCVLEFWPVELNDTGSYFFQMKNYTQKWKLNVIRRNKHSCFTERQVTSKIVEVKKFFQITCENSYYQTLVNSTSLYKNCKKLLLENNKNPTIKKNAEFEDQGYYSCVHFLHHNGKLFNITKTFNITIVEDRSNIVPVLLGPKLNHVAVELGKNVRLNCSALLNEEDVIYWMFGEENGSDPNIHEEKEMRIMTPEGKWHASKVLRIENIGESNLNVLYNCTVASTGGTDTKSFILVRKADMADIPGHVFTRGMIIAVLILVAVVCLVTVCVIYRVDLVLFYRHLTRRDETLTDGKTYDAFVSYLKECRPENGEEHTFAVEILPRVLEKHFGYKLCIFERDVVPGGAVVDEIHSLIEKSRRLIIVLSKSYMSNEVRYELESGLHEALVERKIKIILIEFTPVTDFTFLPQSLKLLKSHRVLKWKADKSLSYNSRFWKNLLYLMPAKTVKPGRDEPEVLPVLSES
T4 sequence (looked up) 2: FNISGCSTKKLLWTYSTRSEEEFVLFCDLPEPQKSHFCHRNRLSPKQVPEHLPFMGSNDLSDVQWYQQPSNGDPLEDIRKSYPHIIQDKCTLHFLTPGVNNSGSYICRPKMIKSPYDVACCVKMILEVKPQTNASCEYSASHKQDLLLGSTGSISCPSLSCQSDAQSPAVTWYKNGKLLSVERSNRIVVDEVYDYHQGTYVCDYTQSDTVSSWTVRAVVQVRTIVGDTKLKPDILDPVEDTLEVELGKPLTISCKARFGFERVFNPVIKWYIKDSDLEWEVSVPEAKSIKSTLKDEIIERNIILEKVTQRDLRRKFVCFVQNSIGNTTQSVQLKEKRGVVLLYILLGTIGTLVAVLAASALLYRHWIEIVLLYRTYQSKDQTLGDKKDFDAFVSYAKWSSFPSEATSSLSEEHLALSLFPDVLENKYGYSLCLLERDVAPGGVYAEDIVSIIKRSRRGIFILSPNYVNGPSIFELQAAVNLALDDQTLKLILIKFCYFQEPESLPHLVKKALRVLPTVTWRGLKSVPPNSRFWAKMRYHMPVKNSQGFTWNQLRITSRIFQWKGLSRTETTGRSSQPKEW

[6] = target: T3, human IL-18 binding protein (IL-18BP); assay: cell-based or functional assay; remark: listed apart in the source
[7] = target: T4, IL-18 receptors on HEK-Blue IL-18 …; assay: cell-based or functional assay; remark: listed apart in the source
[8] = target: T3, human IL-18 binding protein (IL-18BP); assay: cell-based or functional assay; remark: listed apart in the source
[9] = target: T4, IL-18 receptors on HEK-Blue IL-18 …; assay: cell-based or functional assay; remark: listed apart in the source
[10] = target: T5, IL-18 receptor (IL-18Rα and IL-18Rβ) (UniProt Q13478 19-541; O95256 20-599, limits assumed); assay: cell-based or functional assay
T5 sequence (looked up) 1: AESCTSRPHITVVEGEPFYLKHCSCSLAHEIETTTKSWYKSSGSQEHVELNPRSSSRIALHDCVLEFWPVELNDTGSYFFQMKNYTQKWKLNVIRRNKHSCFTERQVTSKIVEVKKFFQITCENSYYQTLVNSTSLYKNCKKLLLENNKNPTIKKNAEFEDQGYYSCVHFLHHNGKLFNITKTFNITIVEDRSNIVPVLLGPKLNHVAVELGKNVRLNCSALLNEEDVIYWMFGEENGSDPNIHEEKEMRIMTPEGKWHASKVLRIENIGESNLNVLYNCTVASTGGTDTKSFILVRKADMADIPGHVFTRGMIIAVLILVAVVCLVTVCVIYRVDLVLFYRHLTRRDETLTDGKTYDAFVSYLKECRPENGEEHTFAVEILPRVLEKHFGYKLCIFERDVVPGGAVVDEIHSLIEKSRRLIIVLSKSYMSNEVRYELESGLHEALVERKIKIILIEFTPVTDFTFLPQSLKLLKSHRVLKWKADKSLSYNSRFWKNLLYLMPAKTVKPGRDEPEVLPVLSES
T5 sequence (looked up) 2: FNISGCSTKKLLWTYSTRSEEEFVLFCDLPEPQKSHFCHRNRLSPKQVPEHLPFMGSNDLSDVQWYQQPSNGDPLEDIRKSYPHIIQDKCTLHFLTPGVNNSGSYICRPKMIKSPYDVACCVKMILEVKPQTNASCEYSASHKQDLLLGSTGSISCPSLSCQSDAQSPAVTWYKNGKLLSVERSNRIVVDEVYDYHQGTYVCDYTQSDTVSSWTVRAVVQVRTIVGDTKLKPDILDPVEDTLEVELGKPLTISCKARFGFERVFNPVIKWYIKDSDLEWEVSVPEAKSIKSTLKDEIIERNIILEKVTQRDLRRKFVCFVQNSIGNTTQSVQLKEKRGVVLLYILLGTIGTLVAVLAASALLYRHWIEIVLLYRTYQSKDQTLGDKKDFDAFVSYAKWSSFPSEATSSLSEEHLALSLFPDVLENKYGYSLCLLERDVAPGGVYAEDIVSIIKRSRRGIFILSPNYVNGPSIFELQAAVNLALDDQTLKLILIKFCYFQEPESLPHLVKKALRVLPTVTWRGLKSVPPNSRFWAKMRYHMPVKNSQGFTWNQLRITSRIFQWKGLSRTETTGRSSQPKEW

[11] = target: T5, IL-18 receptor (IL-18Rα and IL-18Rβ); assay: cell-based or functional assay; remark: listed apart in the source
[12] = target: T3, human IL-18 binding protein (IL-18BP); assay: cell-based or functional assay; remark: listed apart in the source

B1: Comparator 1 (human IL-18 variant M51K, K53S, Q56L, P57A, M60L, S105D, D110S, N111R) (ligand)
chain: YFGKLESKLSVIRNLNDQVLFIDQGNRPLFEDMTDSDCRDNAPRTIFIISKYSDSLARGLAVTISVKCEKISTLSCENKIISFKEMNPPDNIKDTKSDIIFFQRDVPGHSRKMQFESSSYEGYFLACEKERDLFKLILKKEDELGDRSIMFTVQNED
- Kd [1]: 16 nM
- Kd [2]: 0.43 nM
- binding result [3]: no binding
- Fold Change (BP/NO BP), 50 nM BP [4]: 2.5 fold
- Fold Change (BP/NO BP), 300 nM BP [4]: 0.83 fold
- HEK-Blue EC50 pM, +50 nM BP [4]: 0.04 pM
- HEK-blue EC50 (pM) + 300 nM BP [4]: 0.11 pM
- HEK-Blue EC50 pM, NO BP (50 nM BP run) [5]: 0.02 pM
- HEK-Blue EC50 pM, NO BP (300 nM BP run) [5]: 0.13 pM
- HEK-Blue Ec50 (pM), +IL-18BP (50 nM) [6]: 0.22 pM
- HEK-Blue Ec50 (pM), -IL-18BP [7]: 0.15 pM
- HEK-Blue Activity Assay Ec50 (pM), +300 nM hu IL-18BP [8]: 0.09 pM
- HEK-Blue Activity Assay Ec50 (pM), -hu IL-18BP [9]: 0.08 pM
- EC50 pM, IFN gamma expression in PBMCs [10]: 0.093 pM
- EC50 pM, IFN gamma expression in PBMCs, no BP [11]: 1.22 pM
- EC50 pM, IFN gamma expression in PBMCs, + 300 nM BP [12]: 1.82 pM
